Publication PMC12329711, “(Reverse) Evolution of a Promiscuous Isochorismate Pyruvate Lyase into an Efficient Chorismate Mutase” (Biochemistry, 2025)

What was measured:
Assay in all cases: purified protein
Details in all cases: pH 7.5; 30.0 °C
[1] = system: C=C(O[C@@H]1C=C(C(=O)O)C=C[C@H]1O)C(=O)O; type: biochemical, Escherichia coli
[2] = system: C=C(O[C@@H]1C=C(C(=O)O)C=C[C@H]1O)C(=O)O
[3] = system: C=C(O[C@H]1C=CC=C(C(=O)O)[C@@H]1O)C(=O)O

With (Escherichia coli K-12) the Km [1] was 240 µM.
With (Pseudomonas aeruginosa PAO1) the Km [2] was 41 ± 5 µM.
With (Mycobacterium tuberculosis H37Rv) the Km [2] was 170 ± 16 µM, the Km [3] was 200 ± 30 µM and the kcat/Km [3] was 4.4 ± 0.4 M⁻¹ s⁻¹.
